From patent US20060165707A1

What was measured:
[1] = molecular target: … / HLA-A2 / β2m K58→E on T2 cells (human)
[2] = molecular target: … / HLA-A2 / wild-type β2m on T2 cells (human)

For “HLA-A2 restricted parvovirus B19 specific CTL line (cells without a defined receptor)”, the specific lysis (51Cr release), E:T 22:1, 4 hours [1] was 2.6% and the specific lysis (51Cr release), E:T 22:1, 4 hours [2] was 7.3%.
